Reference: PMC4005663 (Nucleic Acids Research, 2014)

B1: GST–MLV IN NTD–CCD(1–289) (domain or fragment)
chain: IENSSPYTSEHFHYTVTDIKDLTKLGAIYDKTKKYWVYQGKPVMPDQFTFELLDFLHQLTHLSFSKMKALLERSHSPYYMLNRDRTLKNITETCKACAQVNASKSAVKQGTRVRGHRPGTHWEIDFTEIKPGLYGYKYLLVFIDTFSGWIEAFPTKKETAKVVTKKLLEEIFPRFGMPQVLGTDNGPAFVSKVSQTVADLLGIDWKLHCAYRPQSSGQVERMNRTIKETLTKLTLATGSRDWVLLLPLALYRARNTPGPHGLTPYEILYGAPPPLVNFPDPDMTRVTNS
B2: GST–MLV IN CTD(290–408) (domain or fragment)
chain: PSLQAHLQALYLVQHEVWRPLAAAYQEQLDRPVVPHPYRVGDTVWVRRHQTKNLEPRWKGPYTVLLTTPTALKVDGIAAWIHAAHVKAADPGGGPSSRLTWRVQRSQNPLKIRLTREAP
notes: not shown: GST, N-terminal, kept

Target: T1, 6xHis–Brd4(1–720) (human, UniProt O60885 1-720)
T1 construct: not shown: 6xHis, N-terminal, kept
Assay: pull-down
Conditions: both partners purified

Binder | Kd [nM]
B1 | > 2000
B2 | 61.2 ± 4.05
